Experimental data: patent US6399759 (UNIVERSITY OF GEORGIA RESEARCH FOUNDATION, dated 2002)

Legend:
Assay in all cases: cell-based or functional assay
[1] = target: Soli E1 (Solenopsis invicta)
[2] = target: Soli C1 (Solenopsis invicta)
[3] = target: T1, Soli E2 (Solenopsis invicta)
T1 chain: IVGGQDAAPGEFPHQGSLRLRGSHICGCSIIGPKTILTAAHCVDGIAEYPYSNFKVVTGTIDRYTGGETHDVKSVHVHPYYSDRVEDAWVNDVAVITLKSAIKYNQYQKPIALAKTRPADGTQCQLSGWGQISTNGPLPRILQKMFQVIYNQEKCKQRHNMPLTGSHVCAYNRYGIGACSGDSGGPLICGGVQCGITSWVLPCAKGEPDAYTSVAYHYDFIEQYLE

[4] = target: Soli C2 (Solenopsis invicta)
Chain of Soli C2 (Solenopsis invicta) (main, as listed by the source): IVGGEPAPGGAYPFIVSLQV

Chain of Soli E1 (Solenopsis invicta) (main, as listed by the source): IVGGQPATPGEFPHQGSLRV
Chain of Soli C1 (Solenopsis invicta) (Q7SIG2 other isoform, or with tags, fused parts or gaps): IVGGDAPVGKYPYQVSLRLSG

B1: Lima Bean Trypsin Inhibitor (other, UniProt P01056 1-83, looked up)
chain: SGHHEHSTDXPSXSSKPCCXHCACTKSIPPQCRCTDLRLDSCHSACKSCICTLSIPAQCVCXXIXDFCYEPCKSSHSDDDNNN
modifications: not fully specified
[1]
  IC50: > 50 nM
[2]
  IC50: 18.4 nM
[3]
  IC50: > 50 nM
[4]
  IC50: 1.46 nM
